US20230111279A1

B1: anti-Clec12A antibody A (antibody, V domains shown)
VH: QVQLQESGPGLVKPSETLSLTCTVSGGSISTYYWSWIRQPPGKGLEWIGYIYYSGSTKYNPSLKSRVTISVDTSKNLFSLKLSSVTAADTAVYYCAREDYYGSGSPFDYWGQGTLVTVSS
VL: IQMTQSPSSLSASVGDRVTITCRASQGIRYDLGWYQQKPGKAPKLLIYAASSLQSGVPSRFSGSGSGTDFTLTISSLQPEDFATYYCLQDYNFPRTFGQGTKVEIK
B2: anti-Clec12A antibody B (antibody, V domains shown)
VH: QVQLVESGGGVVQPGRSLRLSCAASGFTFSSYGMHWVRQAPGKGLEWVAVISYDGSDKYYVDSVKGRFTISRDNSKNTLYLHMNSLRAEDTAVYYCARDKGYYFDYWGQGTLVTVSS
VL: EIVMTQSPATLSLSPGERATLSCRASQSVGNRYLSWYQQKPGQAPRLLIYGASTRATGIPARFSGSGSGTDFTLTISSLQPEDFAVYYCQQDYNLPLTFGGGTKVEIK
B3: anti-Clec12A antibody C (antibody, V domains shown)
VH: QVQLVESGGGVVQPGRSLRLSCAASGFTFSSYGMHWVRQAPGKGLEWVAVISYDGSDKYSADSVKGRFNISRDNSKNTLYLQMNSLRAEDTAVYYCARDGSRYFDYWGQGTLVTVSS
VL: EIFMTQSPATLSLSPGERATLSCRASQSVHSKYLSWYQQKPGQAPSLLIYGASTRATGIPARFSGSGSGTDFTLTISSLQPEDFAVYYCQQDYNLPITFGQGTRLEIK

Biological target: Clec12A on cells (Clec12A over-expressing CHO-S cells; U937 cells endogenously expressing Clec12A) (UniProt Q5QGZ9)
Sequence (Q5QGZ9 whole entry): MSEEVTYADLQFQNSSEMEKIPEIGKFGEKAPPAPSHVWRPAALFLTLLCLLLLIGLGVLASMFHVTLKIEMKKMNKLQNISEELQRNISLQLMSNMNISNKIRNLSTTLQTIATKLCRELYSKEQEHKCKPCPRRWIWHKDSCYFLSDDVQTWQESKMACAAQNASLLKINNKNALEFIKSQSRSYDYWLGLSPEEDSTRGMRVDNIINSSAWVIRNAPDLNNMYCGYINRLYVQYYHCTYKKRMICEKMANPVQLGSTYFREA
Test: flow cytometry, serial dilution, on U937 cells endogenously expressing Clec12A

Compared with B1, B2 is 5.4-fold higher in EC50: 0.621 nM for the first, 3.36 nM for the second.

Binder B3 has an EC50 of 3.35 nM.
